In publication PMC11701102, “Structural insights into the interplay between microtubule polymerases, γ-tubulin complexes and their receptors” (Nature Communications, 2025):

Tests used:
[1] = biological target: MBP-Spc72^231-268 (C. albicans) (UniProt Q5AGV5); test: SEC; MBP-CM1 constructs at 100 µM
[2] = biological target: the molecule itself; test: cryo-EM structure; γ-TuSC/Spc72^1-599/FLAG-Stu2 complex purified via FLAG-Stu2; single particle analysis, γ-TuSC unit within oligomers at 3.6 Å, 14-spoked ring at 8.2 Å
[3] = biological target: GST-CM1^231-268 (GST-Spc72^231-268) (C. albicans) (UniProt Q5AGV5); test: mass photometry; MBP-CM1 and GST-CM1 constructs diluted to below 40 nM in SEC buffer; for the GST constructs: GST-mediated dimers to tetramers
[4] = biological target: γ-tubulin small complex (γ-TuSC) from C. albicans: His-Spc97, His-Spc98, γ-tubulin (Tub4) (C. albicans, UniProt Q59PZ2 1-871; A0A1D8PS42 1-785; O93807 1-502); test: MST
[5] = biological target: T1, FLAG-Stu2 (C. albicans, full length) (C. albicans, UniProt A0A1D8PTZ8 1-924); test: pull-down; FLAG-Stu2 variants from insect cell lysate on anti-FLAG M2 gel, washed, then 20 µg purified Spc72 fragments from E. coli added for 1 h; 200 mM NaCl; eluted with 3xFLAG peptide, Western blot; also called IP or co-IP; settings: both partners purified
T1 construct: Stu2, C. albicans, full-length Met1 to Glu924; FLAG tag followed by an HRV 3C cleavage site at the 5' end; also called wild-type FLAG-Stu2; source: Sf21 insect cells; not shown: FLAG, N-terminal, kept
T1 sequence (looked up): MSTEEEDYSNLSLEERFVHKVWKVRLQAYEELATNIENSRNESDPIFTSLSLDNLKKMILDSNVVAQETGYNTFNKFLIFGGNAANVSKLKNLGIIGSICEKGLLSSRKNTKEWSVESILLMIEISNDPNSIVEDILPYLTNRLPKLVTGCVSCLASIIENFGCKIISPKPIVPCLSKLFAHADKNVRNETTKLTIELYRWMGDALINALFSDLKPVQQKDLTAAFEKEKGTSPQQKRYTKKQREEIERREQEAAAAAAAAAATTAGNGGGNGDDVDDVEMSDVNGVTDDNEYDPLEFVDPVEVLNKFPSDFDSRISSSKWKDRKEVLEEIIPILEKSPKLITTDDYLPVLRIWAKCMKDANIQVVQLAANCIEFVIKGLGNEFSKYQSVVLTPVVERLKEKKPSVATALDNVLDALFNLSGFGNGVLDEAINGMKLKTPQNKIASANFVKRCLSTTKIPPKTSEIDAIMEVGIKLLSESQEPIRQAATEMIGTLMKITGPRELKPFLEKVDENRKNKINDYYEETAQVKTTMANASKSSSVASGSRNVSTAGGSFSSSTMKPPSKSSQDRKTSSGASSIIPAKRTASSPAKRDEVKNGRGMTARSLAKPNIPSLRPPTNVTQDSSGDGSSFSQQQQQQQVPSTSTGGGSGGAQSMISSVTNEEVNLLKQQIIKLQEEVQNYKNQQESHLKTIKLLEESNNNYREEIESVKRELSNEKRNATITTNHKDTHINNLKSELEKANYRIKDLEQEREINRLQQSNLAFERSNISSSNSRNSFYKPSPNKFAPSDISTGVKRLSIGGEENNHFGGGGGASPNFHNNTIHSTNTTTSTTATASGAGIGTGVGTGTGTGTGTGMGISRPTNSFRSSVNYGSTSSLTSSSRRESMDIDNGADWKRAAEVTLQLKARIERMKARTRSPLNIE

[6] = biological target: T2, FLAG-Stu2^∆666-768 (coiled-coil deletion mutant) (C. albicans, UniProt A0A1D8PTZ8 1-924, ∆666-768); test: as above; settings: both partners purified
T2 construct: Stu2, C. albicans (Met1 to Glu924), coiled-coil region 666-768 deleted
T2 sequence: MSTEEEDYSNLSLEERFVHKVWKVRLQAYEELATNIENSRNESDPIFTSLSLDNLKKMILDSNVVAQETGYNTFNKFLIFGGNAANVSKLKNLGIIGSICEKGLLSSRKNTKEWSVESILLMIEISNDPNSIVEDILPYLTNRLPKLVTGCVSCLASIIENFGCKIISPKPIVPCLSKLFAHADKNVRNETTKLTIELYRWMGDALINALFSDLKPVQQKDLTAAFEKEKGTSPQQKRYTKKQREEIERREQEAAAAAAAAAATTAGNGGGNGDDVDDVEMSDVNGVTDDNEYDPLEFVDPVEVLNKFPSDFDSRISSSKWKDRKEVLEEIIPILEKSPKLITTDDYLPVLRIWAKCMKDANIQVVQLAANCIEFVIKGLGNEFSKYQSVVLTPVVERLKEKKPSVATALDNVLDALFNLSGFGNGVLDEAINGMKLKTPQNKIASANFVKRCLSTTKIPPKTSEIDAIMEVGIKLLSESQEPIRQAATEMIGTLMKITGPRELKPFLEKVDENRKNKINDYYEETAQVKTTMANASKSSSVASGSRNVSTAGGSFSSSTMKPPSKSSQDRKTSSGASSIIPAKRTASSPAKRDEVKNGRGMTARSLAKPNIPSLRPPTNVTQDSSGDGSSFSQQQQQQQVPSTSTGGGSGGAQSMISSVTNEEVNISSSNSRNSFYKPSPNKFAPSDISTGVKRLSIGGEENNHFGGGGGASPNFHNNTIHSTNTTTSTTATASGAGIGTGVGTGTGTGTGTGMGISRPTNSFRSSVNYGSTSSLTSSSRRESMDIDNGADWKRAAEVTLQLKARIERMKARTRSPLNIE

[7] = biological target: T3, FLAG-tagged γ-TuSC (FLAG-Spc98, His-Spc97, γ-tubulin) (C. albicans, UniProt A0A1D8PS42 1-785; Q59PZ2 1-871; O93807 1-502); test: pull-down; FLAG-γ-TuSC (FLAG-Spc98) from insect cell lysate on anti-FLAG M2 gel, washed, then 20 µg purified His-Spc72 added for 1 h; 150 mM NaCl; eluted with 3xFLAG peptide, Western blot; called co-IP in the text; settings: both partners purified
T3 construct: Spc98, C. albicans; Spc97, C. albicans; γ-tubulin (Tub4), C. albicans; also called FLAG-γ-TuSC; copies: + +

[8] = biological target: the molecule itself; test: SEC-MALS + other: mass photometry; FLAG-Stu2 (10 µM) and His-Spc72^291-599 (60 µM) alone or mixed 1:1 (vol), Superdex 200 Increase 5/150, 50 mM Tris-HCl pH 7.5, 150 mM NaCl, room temperature; mass photometry below 40 nM

Molecule: MBP-Spc72^231-268 (from UniProt Q5AGV5 231-268) (domain or fragment)
- stoichiometry N [1]: 2

B1: γ-tubulin (Tub4), C. albicans (natural protein, UniProt O93807 1-502, looked up)
chain: MPGETITLQVGQCGNQVGLQYWQQLATEHGIQSDGSSTPYPKDINDLQLQELNNSGSSPQSYPQQTKPNGKYRNDHPELFFTLSDSNTYTPRSILIDMEPSVIAKSTSALPMFNPRNVHLSNQGNGAANNWINGYKYGTEEEETLLNLIDREVDKCDNLSNFQLFHSVAGGTGSGVGSKMLEVISDRYGHKKLLNTFSIFPSNEDTSDVVVQPYNTILTLKRLIDYSDATFVFHNDSLNRIENILFNNNSNIQHDDNDLFLGANKLIALVSASVSNPLRFPGYMYSSMESIVSNLIPTPDLKFLTSSIAPFSTQKHNYLNEYDMLLELSNDRYKTNRVGGDTSYISMLNYLIGYNLDQREIRKGILKSQQRISFVPWVARSVLVVHGKKSPYLKNTNLEGIQVTNNTSMIDVFTKILKQFDLLIKRKAYLNRYYSSVEEENEVMEMFNESRESVKSIIDEYKACKEITYLDDDDEDDLEDGDGGGGGNGNGYNNIDDADMGI
notes: γ-tubulin (Tub4), C. albicans; Subunit of m1, written alone for the contacts in the cryo-EM structure
- binding result [2]: binds

B2: GST-CM1^231-268 (GST-Spc72^231-268) (domain or fragment)
chain: NIATTTKSREEELNKRIVNYKIQLKLMKNFLQELIDRN
- stoichiometry N [3]: 4
- Kd [4]: 105 nM

B3: His-Spc72^1-599 (C. albicans), from E. coli (domain or fragment, UniProt Q5AGV5 1-599, looked up)
chain: MSNLSINESNDNSNVSILSNKSGAQSSTNSSPNLIVFKQPEDLSIQLQQQQQGTQEDTPEEEEEEEEEMEQITQLEVQQENQPDTLSSSPFISRPNSPLDDIIRPQGTSSPSLTIRDSYSSQVDINISNLHKSLNEMRLSTDPVDNNNNNNKVNKNNPTNSDISNDDIITIDNLTPSRIQPKNISPWRQFRPTLRGSPESTPRSLFQNKPNLKFNNGLSPTNGSRDMVTNNIATTTKSREEELNKRIVNYKIQLKLMKNFLQELIDRNNLDPHEFHTLLRRNNNNIMNNENNPLSTSLSQTSTLEIQHQNLQIELDEALELNKQLYNKIETANKEISDKDLQISNYESRINLINYSVDELIYILINEYDKNNYSHGGSNTTSPGKETLQQSISAQLEVKLNVLKLELMTRLDQSHQYNNKPHDLFTPPYTSSEYGVSTNNVANKNDLEGYIHIIEDLIKTVDELELTCENYKANKNELQNQLVEQINESIRIKNNFQIMSNKFNQLRQSLSEKENDKNLDEFSKNNHQQQQQQQIQQLEQKLIEYEKCITILQDELDQYKQPSDTTNTTNNNNNNNNNNNRSSYSSYNNHRNSSLNELN
notes: source: E. coli BL21 CodonPlus-RIL, purified (Ni-TED); not shown: His6, N-terminal, kept
- binding result [5]: binds
- binding result [6]: binds

B4: His-Spc72^1-599,3R (L243R/I247R/L254R), from E. coli (domain or fragment)
chain: MSNLSINESNDNSNVSILSNKSGAQSSTNSSPNLIVFKQPEDLSIQLQQQQQGTQEDTPEEEEEEEEEMEQITQLEVQQENQPDTLSSSPFISRPNSPLDDIIRPQGTSSPSLTIRDSYSSQVDINISNLHKSLNEMRLSTDPVDNNNNNNKVNKNNPTNSDISNDDIITIDNLTPSRIQPKNISPWRQFRPTLRGSPESTPRSLFQNKPNLKFNNGLSPTNGSRDMVTNNIATTTKSREEERNKRRVNYKIQRKLMKNFLQELIDRNNLDPHEFHTLLRRNNNNIMNNENNPLSTSLSQTSTLEIQHQNLQIELDEALELNKQLYNKIETANKEISDKDLQISNYESRINLINYSVDELIYILINEYDKNNYSHGGSNTTSPGKETLQQSISAQLEVKLNVLKLELMTRLDQSHQYNNKPHDLFTPPYTSSEYGVSTNNVANKNDLEGYIHIIEDLIKTVDELELTCENYKANKNELQNQLVEQINESIRIKNNFQIMSNKFNQLRQSLSEKENDKNLDEFSKNNHQQQQQQQIQQLEQKLIEYEKCITILQDELDQYKQPSDTTNTTNNNNNNNNNNNRSSYSSYNNHRNSSLNELN
notes: The cloning of the E. coli construct of this mutant is not described; also called Spc72^3R mutant; source: E. coli BL21 CodonPlus-RIL, purified (Ni-TED)
- fold lower binding efficiency compared to Spc72^1-599 [7]: 1.7 fold

B5: His-Spc72^291-599 (domain or fragment, C. albicans, UniProt Q5AGV5 291-599, looked up)
chain: NNPLSTSLSQTSTLEIQHQNLQIELDEALELNKQLYNKIETANKEISDKDLQISNYESRINLINYSVDELIYILINEYDKNNYSHGGSNTTSPGKETLQQSISAQLEVKLNVLKLELMTRLDQSHQYNNKPHDLFTPPYTSSEYGVSTNNVANKNDLEGYIHIIEDLIKTVDELELTCENYKANKNELQNQLVEQINESIRIKNNFQIMSNKFNQLRQSLSEKENDKNLDEFSKNNHQQQQQQQIQQLEQKLIEYEKCITILQDELDQYKQPSDTTNTTNNNNNNNNNNNRSSYSSYNNHRNSSLNELN
notes: source: E. coli, purified (Ni-TED for pull-downs; Ni-NTA and SEC for HX-MS, SEC-MALS and mass photometry); not shown: His6, N-terminal, kept
- stoichiometry N [8]: 2

B6: His-GFP-Spc72^300-350 (domain or fragment, C. albicans, UniProt Q5AGV5 300-350, looked up)
chain: QTSTLEIQHQNLQIELDEALELNKQLYNKIETANKEISDKDLQISNYESRI
notes: Spc72, C. albicans, codons 300-350; source: E. coli BL21 CodonPlus-RIL; not shown: GFP, N-terminal, kept
- binding result [5]: binds

B7: His-GFP-Spc72^430-480 (domain or fragment, C. albicans, UniProt Q5AGV5 430-480, looked up)
chain: TSSEYGVSTNNVANKNDLEGYIHIIEDLIKTVDELELTCENYKANKNELQN
notes: Spc72, C. albicans, codons 430-480; source: E. coli BL21 CodonPlus-RIL; not shown: GFP, N-terminal, kept
- binding result [5]: binds

B8: His-GFP-Spc72^429-599 (domain or fragment, C. albicans, UniProt Q5AGV5 429-599, looked up)
chain: YTSSEYGVSTNNVANKNDLEGYIHIIEDLIKTVDELELTCENYKANKNELQNQLVEQINESIRIKNNFQIMSNKFNQLRQSLSEKENDKNLDEFSKNNHQQQQQQQIQQLEQKLIEYEKCITILQDELDQYKQPSDTTNTTNNNNNNNNNNNRSSYSSYNNHRNSSLNELN
notes: also called second coiled-coil module; source: E. coli BL21 CodonPlus-RIL, purified (Ni-TED); not shown: GFP, N-terminal, kept
- binding result [5]: binds
